These results are taken from publication PMC4878873.

One assay addresses CUL4A. Kind of assay: anti-Flag immunoprecipitation, SILAC mass spectrometry. Particulars: HEK293T; mutant in light medium, wild type in heavy medium; read off a plot.
A further assay addresses DDB1. The assay is described as above. To be noted: HEK293T; mutant in light medium, wild type in heavy medium; read off a plot.
A further assay addresses RBX1. The assay is described as above. To be noted: HEK293T; mutant in light medium, wild type in heavy medium; read off a plot.
The next assay has as its target CUL4B. The description is as above. To be noted: HEK293T; mutant in light medium, wild type in heavy medium; read off a plot.
A further assay concerns the target CUL2. Described as above. Particulars: HEK293T; mutant in light medium, wild type in heavy medium; read off a plot.
For the next assay, the target named is CUL1. The assay is described as above. Particulars: HEK293T; mutant in light medium, wild type in heavy medium; read off a plot.
The target of another assay is Elongin B. The description is as above. To be noted: HEK293T; mutant in light medium, wild type in heavy medium; read off a plot.
The target in a further assay is Elongin C. The description is as above. To be noted: HEK293T; mutant in light medium, wild type in heavy medium; read off a plot.
The target of a further assay is SKP1. The assay is described as above. To be noted: HEK293T; mutant in light medium, wild type in heavy medium; read off a plot.
A further assay has as its target CUL3. The description is as above. To be noted: HEK293T; mutant in light medium, wild type in heavy medium; read off a plot.
Assay [1] addresses COP9-Signalosome (CSN), wild type (human) (UniProt Q13098).
The target in assay [2] is Cul1^d-N8/Rbx1^∆RING (human) (UniProt Q13616).
For assay [3] the target is unchanged. This is another data set of the same source.

unlabeled Cul1/Rbx1, sequence (Q13616 whole entry): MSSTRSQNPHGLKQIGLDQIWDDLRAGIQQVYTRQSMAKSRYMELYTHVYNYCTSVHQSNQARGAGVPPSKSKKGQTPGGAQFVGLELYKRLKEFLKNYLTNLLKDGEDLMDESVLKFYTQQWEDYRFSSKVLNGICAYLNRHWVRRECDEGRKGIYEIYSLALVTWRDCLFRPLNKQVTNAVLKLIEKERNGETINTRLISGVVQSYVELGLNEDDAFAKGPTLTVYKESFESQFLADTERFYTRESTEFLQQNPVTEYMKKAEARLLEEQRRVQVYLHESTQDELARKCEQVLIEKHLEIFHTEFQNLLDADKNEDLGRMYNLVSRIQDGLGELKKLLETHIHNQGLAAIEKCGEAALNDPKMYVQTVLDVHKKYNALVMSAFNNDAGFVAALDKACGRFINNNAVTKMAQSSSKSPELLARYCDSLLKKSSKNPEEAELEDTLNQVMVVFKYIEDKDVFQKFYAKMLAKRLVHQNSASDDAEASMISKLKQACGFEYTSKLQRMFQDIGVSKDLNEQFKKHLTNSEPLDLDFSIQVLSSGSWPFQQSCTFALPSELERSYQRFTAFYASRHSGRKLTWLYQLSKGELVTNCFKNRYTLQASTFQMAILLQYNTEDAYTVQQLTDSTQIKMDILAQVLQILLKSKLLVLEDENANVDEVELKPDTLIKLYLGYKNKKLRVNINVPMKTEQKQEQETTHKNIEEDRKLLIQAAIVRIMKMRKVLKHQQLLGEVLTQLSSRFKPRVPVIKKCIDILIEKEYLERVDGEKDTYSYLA
unlabeled Cul1/Rbx1, sequence (P62877 whole entry): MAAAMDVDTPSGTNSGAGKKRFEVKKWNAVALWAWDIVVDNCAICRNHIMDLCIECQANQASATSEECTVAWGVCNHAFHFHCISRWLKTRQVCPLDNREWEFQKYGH

Turning to “Flag-tagged wild type Csn5 (from UniProt Q92905) T103I”, the ratio to parent in the assay with CUL4A is 0.57; with DDB1 it was 0.78; with RBX1 it was 0.92; in the assay with CUL4B it was 0.63; with CUL2 it was 0.83; with CUL1, 0.9. The ratio to parent stood at 0.85 with Elongin B, 0.8 in the assay with Elongin C, 0.88 with SKP1 and 0.75 with CUL3.
For orientation: IC50 means the concentration at which inhibition is half-maximal. Lower therefore signals inhibition by little substance. As for “unlabeled Cul1/Rbx1 (from UniProt Q13616 1-776; P62877 1-108) (complex)”, in [1], the IC50 was found to be 390 nM.
Turning to “COP9-Signalosome (CSN), wild type (from UniProt Q13098 1-491; P61201 1-443; Q9UNS2 1-423; Q9BT78 1-406; Q92905 1-334; Q7L5N1 1-327; Q9H9Q2 1-264; Q99627 1-209) (complex)”, the KM of deneddylation of Cul1-N8/Rbx1^∆RING (with the sortase sequence, not dansylated) by CSN in [2] is 5 nM.
A word on the Kd: it is the concentration at which binding is half-saturated. Higher therefore signals lower affinity. In assay [3], “CSN^5E76A (from UniProt Q13098 1-491; P61201 1-443; Q9UNS2 1-423; Q9BT78 1-406; Q92905 1-334; Q7L5N1 1-327; Q9H9Q2 1-264; Q99627 1-209) (complex)” registered a Kd of 13 nM.
